Experimental data published in paper PMC5986797, “Laminin heparin-binding peptides bind to several growth factors and enhance diabetic wound healing” (Nature Communications, 2018).

T1: recombinant laminin LAMA3_(2928–3150) protein (human, UniProt Q16787 2928-3150)
T1 construct: laminin subunit alpha-3, human, LG domain Ser2928-Cys3150 (linker domain and LG4 domain); also called laminin alpha 3 LG domain recombinant protein; source: HEK-293F, transfected, purified from culture medium (HisTrap, size-exclusion chromatography)
T1 sequence (looked up): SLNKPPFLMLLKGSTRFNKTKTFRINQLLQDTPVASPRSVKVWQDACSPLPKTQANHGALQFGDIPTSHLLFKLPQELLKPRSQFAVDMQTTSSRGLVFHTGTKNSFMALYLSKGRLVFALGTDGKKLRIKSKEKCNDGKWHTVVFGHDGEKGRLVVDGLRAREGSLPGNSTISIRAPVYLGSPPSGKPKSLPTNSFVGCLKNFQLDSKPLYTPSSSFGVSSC

T2: recombinant human syndecan-4 (human, UniProt P31431 19-145)
T2 construct: syndecan-4, human, recombinant; probably the extracellular domain; source: bought: SinoBiological
T2 sequence (looked up): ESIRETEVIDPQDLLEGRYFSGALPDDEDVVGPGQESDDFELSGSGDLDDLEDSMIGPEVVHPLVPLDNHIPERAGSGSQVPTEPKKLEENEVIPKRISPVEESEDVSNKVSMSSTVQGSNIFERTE

T3: recombinant human syndecan-1 (human, UniProt P18827 23-254)
T3 construct: syndecan-1, human, recombinant; probably the extracellular domain; source: bought: SinoBiological
T3 sequence (looked up): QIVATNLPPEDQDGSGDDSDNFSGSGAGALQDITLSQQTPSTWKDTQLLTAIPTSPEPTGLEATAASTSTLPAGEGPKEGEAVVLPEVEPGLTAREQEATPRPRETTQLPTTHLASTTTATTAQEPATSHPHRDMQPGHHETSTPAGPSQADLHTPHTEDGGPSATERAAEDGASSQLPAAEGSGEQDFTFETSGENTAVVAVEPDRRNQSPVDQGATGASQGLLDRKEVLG

B1: laminin peptide LAMA3_(3043–3067) (peptide, UniProt Q16787 3043-3067, looked up)
peptide: RLVFALGTDGKKLRIKSKEKCNDGK
notes: laminin subunit alpha-3, human, residues 3043-3067; also called laminin HBD peptide; source: synthetic peptide (Genscript)
B2: laminin peptide LAMA5_(3417–3436) (peptide, UniProt O15230 3417-3436, looked up)
peptide: RQRSRPGRWHKVSVRWEKNR
notes: laminin subunit alpha-5, human, residues 3417-3436; source: synthetic peptide (Genscript)
B3: laminin peptide LAMA3_(2932–2951) (peptide, UniProt Q16787 2932-2951, looked up)
peptide: PPFLMLLKGSTRFNKTKTFR
notes: laminin subunit alpha-3, human, residues 2932-2951, from the LG3-LG4 linker; source: synthetic peptide (Genscript)
B4: laminin peptide LAMA5_(3539–3550) (peptide, UniProt O15230 3539-3550, looked up)
peptide: TLPDVGLELEVR
notes: laminin subunit alpha-5, human, residues 3539-3550; source: synthetic peptide (Genscript)
B5: laminin peptide LAMA5_(3300–3330) (peptide, UniProt O15230 3300-3330, looked up)
peptide: TPGLGPRGLQATARKASRRSRQPARHPACML
notes: laminin subunit alpha-5, human, residues 3300-3330, from the LG3-LG4 linker; source: synthetic peptide (Genscript)
B6: placental growth factor (PlGF)-2 (ligand, human, UniProt P49763-3 19-170, looked up)
chain: LPAVPPQQWALSAGNGSSEVEVVPFQEVWGRSYCRALERLVDVVSEYPSEVEHMFSPSCVSLLRCTGCCGDENLHCVPVETANVTMQLLKIRSGDRPSYVELTFSQHVRCECRPLREKMKPERRRPKGRGKRRREKQRPTDCHLCGDAVPRR
notes: placenta growth factor, form PlGF-2, human, bought in its mature form; source: bought: PeproTech; produced in Escherichia coli
B7: FGF-7 (ligand, UniProt P21781 32-194, looked up)
chain: CNDMTPEQMATNVNCSSPERHTRSYDYMEGGDIRVRRLFCRTQWYLRIDKRGKVKGTQEMKNNYNIMEIRTVAVGIVAIKGVESEFYLAMNKEGKLYAKKECNEDCNFKELILENHYNTYASAKWTHNGGEMFVALNQKGIPVRGKKTKKEQKTAHFLPMAIT
notes: fibroblast growth factor 7, bought in its mature form; source: bought: PeproTech; produced in Escherichia coli
B8: FGF-10 (ligand, UniProt O15520 38-208, looked up)
chain: QALGQDMVSPEATNSSSSSFSSPSSAGRHVRSYNHLQGDVRWRKLFSFTKYFLKIEKNGKVSGTKKENCPYSILEITSVEIGVVAVKAINSNYYLAMNKKGKLYGSKEFNNDCKLKERIEENGYNTYASFNWQHNGRQMYVALNGKGAPRRGQKTRRKNTSAHFLPMVVHS
notes: fibroblast growth factor 10, bought in its mature form; source: bought: PeproTech; produced in Escherichia coli
B9: FGF-18 (ligand, UniProt O76093 28-207, looked up)
chain: EENVDFRIHVENQTRARDDVSRKQLRLYQLYSRTSGKHIQVLGRRISARGEDGDKYAQLLVETDTFGSQVRIKGKETEFYLCMNRKGKLVGKPDGTSKECVFIEKVLENNYTALMSAKYSGWYVGFTKKGRPRKGPKTRENQQDVHFMKRYPKGQPELQKPFKYTTVTKRSRRIRPTHPA
notes: fibroblast growth factor 18, bought in its mature form; source: bought: PeproTech; produced in Escherichia coli
B10: BMP-2 (ligand, UniProt P12643 283-396, looked up)
chain: QAKHKQRKRLKSSCKRHPLYVDFSDVGWNDWIVAPPGYHAFYCHGECPFPLADHLNSTNHAIVQTLVNSVNSKIPKACCVPTELSAISMLYLDENEKVVLKNYQDMVVEGCGCR
notes: bone morphogenetic protein 2, bought in its mature form; source: bought: PeproTech; produced in Escherichia coli
B11: BMP-3 (ligand, UniProt P12645 363-472, looked up)
chain: QWIEPRNCARRYLKVDFADIGWSEWIISPKSFDAYYCSGACQFPMPKSLKPSNHATIQSIVRAVGVVPGIPEPCCVPEKMSSLSILFFDENKNVVLKVYPNMTVESCACR
notes: bone morphogenetic protein 3, bought in its mature form; source: bought: PeproTech; produced in Escherichia coli
B12: NT-3 (ligand, UniProt P20783 139-257, looked up)
chain: YAEHKSHRGEYSVCDSESLWVTDKSSAIDIRGHQVTVLGEIKTGNSPVKQYFYETRCKEARPVKNGCRGIDDKHWNSQCKTSQTYVRALTSENNKLVGWRWIRIDTSCVCALSRKIGRT
notes: neurotrophin-3, bought in its mature form; also called neurotrophin NT-3; source: bought: PeproTech; produced in Escherichia coli

What follows are binders tested against T4, FGF-2 (human, UniProt P09038 143-288) (assay: ELISA; plates coated with laminin peptide (10 µg/mL by the legend, 1 μg/mL by the methods); 1 μg/mL GF added; bound GF detected with an antibody for each GF; BSA-coated wells as control). Details: both partners purified.
T4 construct: fibroblast growth factor 2, human, bought in its mature form; source: bought: PeproTech; produced in Escherichia coli
T4 sequence (P09038 143-288): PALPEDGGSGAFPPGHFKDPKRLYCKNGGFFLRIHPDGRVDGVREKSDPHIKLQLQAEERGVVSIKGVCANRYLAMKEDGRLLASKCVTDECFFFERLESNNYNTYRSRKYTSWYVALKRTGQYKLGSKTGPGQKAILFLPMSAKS

Binder | binding result
B1 | binds
B2 | binds
B3 | binds
B4 | binds

These binders were tested against T5, platelet-derived growth factor PDGF-BB (human, UniProt P01127 82-190) in the same assay as above. Details: both partners purified.
T5 construct: platelet-derived growth factor subunit B, human, bought in its mature form; a homodimer by its name; source: bought: PeproTech; produced in Escherichia coli
T5 sequence (P01127 82-190): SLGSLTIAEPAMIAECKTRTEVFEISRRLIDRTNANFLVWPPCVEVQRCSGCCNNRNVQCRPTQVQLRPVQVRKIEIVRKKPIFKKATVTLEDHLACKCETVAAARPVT

Binder | binding result
B1 | binds
B2 | binds
B4 | binds

What follows are binders tested against B6 in the same assay as above. Details: both partners purified.

Binder | binding result
B1 | binds
B2 | binds
B5 | binds
B4 | binds

These binders were tested against T1, recombinant laminin LAMA3_(2928–3150) … (assay: ELISA; plates coated with 1 μg/mL recombinant laminin LG domain; 1 μg/mL GF added; bound GF detected with an antibody for each GF; BSA-coated wells as control). Details: both partners purified.

Binder | binding result
B6 | binds

Each binder was assayed against T6, recombinant human laminin-111 (human, UniProt P25391 18-3075; P07942 22-1786; P11047 34-1609) (assay: ELISA; plates coated with 10 μg/mL laminin isoform; 1 μg/mL GF for 60 min at RT in the absence or presence of 10 μM heparin; bound GF detected with an antibody for each GF). Details: both partners purified.
T6 construct: laminin subunit alpha-1, human; chain told by the isoform's name; laminin subunit beta-1, human; laminin subunit gamma-1, human; source: bought: BioLamina (recombinant human, >95% purity); copies: + +

Binder | binding result
B6 | binds

The binders below were run against T7, recombinant human laminin-211 (human, UniProt P24043 23-3122; P07942 22-1786; P11047 34-1609) in the same assay as above. Details: both partners purified.
T7 construct: laminin subunit alpha-2, human; chain told by the isoform's name; laminin subunit beta-1, human; laminin subunit gamma-1, human; source: bought: BioLamina (recombinant human, >95% purity); copies: + +

Binder | binding result
B6 | binds

What follows are binders tested against T8, recombinant human laminin-511 (human, UniProt O15230 36-3695; P07942 22-1786; P11047 34-1609) (assay: ELISA; plates coated with 50 nM GF or chemokine in PBS; 10 nM laminin isoform in PBS added; bound laminin detected with anti-LAMC1 or anti-LAMA3 polyclonal antibody; A450 signals greater than 0.1 taken as binding; BSA-coated wells as control). Details: both partners purified.
T8 construct: laminin subunit alpha-5, human; chain told by the isoform's name; laminin subunit beta-1, human; laminin subunit gamma-1, human; source: bought: BioLamina (recombinant human, >95% purity); copies: + +

Binder | binding result
B7 | binds
B8 | binds
B9 | binds
B10 | binds
B11 | binds
B12 | binds

What follows are binders tested against T6, recombinant human laminin-111 in the same assay as above. Details: both partners purified.

Binder | binding result
B7 | binds
B8 | binds
B9 | binds
B10 | binds
B11 | binds
B12 | binds

The binders below were run against T9, recombinant human laminin-521 (human, UniProt O15230 36-3695; P55268 33-1798; P11047 34-1609) in the same assay as above. Details: both partners purified.
T9 construct: laminin subunit alpha-5, human; chain told by the isoform's name; laminin subunit beta-2, human; laminin subunit gamma-1, human; also called laminin isoform-521; source: bought: BioLamina (recombinant human, >95% purity); copies: + +

Binder | binding result
B7 | binds
B8 | binds
B9 | binds
B10 | binds
B11 | binds
B12 | binds

These binders were tested against T7, recombinant human laminin-211 in the same assay as above. Details: both partners purified.

Binder | binding result
B7 | binds
B8 | binds
B9 | binds
B10 | binds
B11 | binds
B12 | binds

Each binder was assayed against T9, recombinant human laminin-521 (assay: SPR; laminin-521 immobilised by amine coupling on a C1 chip (~2000 RU); GF flown at 20 μL/min in 0.01 M HEPES pH 7.4, 0.15 M NaCl, 0.005% surfactant P20; Langmuir binding kinetics). Details: both partners purified.

Binder | Kd
B6 | 12.9 nM

Each binder was assayed against T2, recombinant human syndecan-4 (assay: ELISA; plates coated with laminin peptide (10 µg/mL by the legend, 1 μg/mL by the methods); 1 μg/mL His-tagged syndecan added; detected with anti-histidine tag antibody; BSA-coated wells as control). Details: both partners purified.

Binder | binding result
B1 | binds
B2 | binds
B5 | binds

These binders were tested against T3, recombinant human syndecan-1 in the same assay as above. Details: both partners purified.

Binder | binding result
B1 | binds
B2 | binds
B5 | binds

These binders were tested against T10, recombinant human syndecan-2 (human, UniProt P34741 19-144) in the same assay as above. Details: both partners purified.
T10 construct: syndecan-2, human, recombinant; probably the extracellular domain; source: bought: SinoBiological
T10 sequence (P34741 19-144): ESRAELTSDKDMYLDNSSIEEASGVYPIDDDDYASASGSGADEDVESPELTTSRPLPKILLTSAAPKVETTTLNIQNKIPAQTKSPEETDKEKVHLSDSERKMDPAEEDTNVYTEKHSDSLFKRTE

Binder | binding result
B1 | binds
B2 | binds
B5 | binds
